# Tests used:
# Test in all cases: SPR
# [1] = biological target: P2-4G
# [2] = biological target: P2-3E-RBD (mammalian cell expression system)
# [3] = biological target: P2-5C-RBD (mammalian cell expression system)
# [4] = biological target: P2-2C-RBD (mammalian cell expression system)
# [5] = biological target: P1-5B-RBD (mammalian cell expression system)
# [6] = biological target: P2-3A-RBD (mammalian cell expression system)
# [7] = biological target: P2-2C-RBD (insect cell expression system)
# [8] = biological target: P1-1G-RBD (insect cell expression system)
# [9] = biological target: P1-5B-RBD (insect cell expression system)
# [10] = biological target: P2-3E-RBD (insect cell expression system)
# [11] = biological target: P2-3A-RBD (insect cell expression system)
# [12] = biological target: P2-3D-RBD (insect cell expression system)
binder,measurement,setting,value
HEV-p239 (other) IALTLFNLADTLLGGLPTELISSAGGQLFYSRPVVSANGEPTVKLYTSVENAQQDKGIAIPHDIDLGESRVVIQDYDNQHEQDRPTPSPAPSRPFSVLRANDVLWLSLTAAEYDQSTYGSSTGPVYVSDSVTLVNVATGAQAVARSLDWTKVTLDGRPLSTIQQYSKTFFVLPLRGKLSFWEAGTTKAGYPYNYNTTASDQLLVENAAGHRVAISTYTTSLGAGPVSISAVAVLAPHSV,Kd,[1],3.4 nM
same,Kd,[2],1.24 nM
same,Kd,[3],0.874 nM
same,Kd,[4],1.02 nM
same,Kd,[5],0.131 nM
same,Kd,[6],0.0364 nM
same,Kd,[7],3.71 nM
same,Kd,[8],3.57 nM
same,Kd,[9],1.13 nM
same,Kd,[10],1.41 nM
same,Kd,[11],0.655 nM
same,Kd,[12],1.8 nM

# — patent publication US20260250328A1 (published 2026)
